# Measurements reported in patent US20050019862.
# Target: T1, human plasminogen, P00747
# T1 chain: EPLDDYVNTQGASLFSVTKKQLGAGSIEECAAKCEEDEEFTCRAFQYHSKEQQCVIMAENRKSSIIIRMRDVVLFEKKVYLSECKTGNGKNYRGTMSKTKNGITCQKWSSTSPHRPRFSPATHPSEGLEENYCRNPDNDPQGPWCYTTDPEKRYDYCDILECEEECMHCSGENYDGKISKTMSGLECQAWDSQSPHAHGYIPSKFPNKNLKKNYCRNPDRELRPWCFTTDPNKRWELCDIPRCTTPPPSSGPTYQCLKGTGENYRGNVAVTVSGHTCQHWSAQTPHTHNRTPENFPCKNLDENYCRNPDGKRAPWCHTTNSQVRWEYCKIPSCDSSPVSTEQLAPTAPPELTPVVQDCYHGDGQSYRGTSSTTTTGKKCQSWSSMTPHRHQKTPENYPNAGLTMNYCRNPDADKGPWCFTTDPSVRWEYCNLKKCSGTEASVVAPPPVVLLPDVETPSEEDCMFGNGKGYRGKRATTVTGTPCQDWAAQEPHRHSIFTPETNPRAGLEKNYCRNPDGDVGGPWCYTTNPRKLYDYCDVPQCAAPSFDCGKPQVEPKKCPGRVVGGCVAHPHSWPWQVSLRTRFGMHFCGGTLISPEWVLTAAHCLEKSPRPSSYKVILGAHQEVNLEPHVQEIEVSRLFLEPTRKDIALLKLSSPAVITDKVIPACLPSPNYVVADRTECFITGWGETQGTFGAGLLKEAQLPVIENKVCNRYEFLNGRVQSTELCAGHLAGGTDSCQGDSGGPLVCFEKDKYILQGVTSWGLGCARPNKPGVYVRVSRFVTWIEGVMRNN
protein,measurement,value
recombinant staphylokinase (SAK) produced in E. coli from plasmid pOXYSAK-1 (protein) SSSFDKGKYKKGDDASYFEPTGPYLMVNVTGVDGKGNELLSPHYVEFPIKPGTTLTKEKIEYYVEWALDATAYKEFRVVELDPSAKIEVTYYDKNKKKEETKSFPITEKGFVVPDLSEHIKNPGFNLITKVVIEKK,Specific activity of purified SAK protein,1.75 U/µg protein
